{
  "source": "patent US20240158457A1",
  "about": "“INTERLEUKIN-18 RECEPTOR BINDING POLYPEPTIDES AND USES THEREOF” (Medikine, Inc., priority 2022, published 2024)",
  "origin": "cited, not measured here",
  "molecules": {"B1": {"name": "IL-18BP: IL-18 binding protein, decoy receptor; IL-18BP Fc fusion (Acro #ILP-H5253) (protein)", "chain": "TPVSQTTTAATASVRSTKDPCPSQPPVFPAAKQCPALEVTWPEVEVPLNGTLSLSCVACSRFPNFSILYWLGNGSFIEHLPGRLWEGSTSRERGSTGTQLCKALVLEQLTPALHSTNFSCVLVDPEQVVQRHVVLAQLWAGLRATLPPTQEALPSSHSSPQQQG", "modifications": "left off: a dimerising Fc or GST"}},
  "target": "T1, IL-18 (Homo sapiens, UniProt Q14116)",
  "T1 sequence (Q14116 37-193)": "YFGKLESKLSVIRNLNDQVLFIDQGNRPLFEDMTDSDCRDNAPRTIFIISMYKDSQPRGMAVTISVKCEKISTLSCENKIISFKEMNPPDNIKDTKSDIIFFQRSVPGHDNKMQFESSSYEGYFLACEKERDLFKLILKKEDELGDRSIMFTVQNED",
  "conditions": "background; read-out: affinity for IL-18",
  "data": [
    {"molecule": "B1", "values": [
      {"measurement": "Kd", "value": "~0.4", "unit": "nM"}
    ]}
  ]
}
